In publication PMC6030175, “A senataxin-associated exonuclease SAN1 is required for resistance to DNA interstrand cross-links”:

Molecular target: T1, SAN1 D90A (catalytically inactive) (mouse or human ( for the …, UniProt Q6RI63 1-786, D90A))
T1 sequence: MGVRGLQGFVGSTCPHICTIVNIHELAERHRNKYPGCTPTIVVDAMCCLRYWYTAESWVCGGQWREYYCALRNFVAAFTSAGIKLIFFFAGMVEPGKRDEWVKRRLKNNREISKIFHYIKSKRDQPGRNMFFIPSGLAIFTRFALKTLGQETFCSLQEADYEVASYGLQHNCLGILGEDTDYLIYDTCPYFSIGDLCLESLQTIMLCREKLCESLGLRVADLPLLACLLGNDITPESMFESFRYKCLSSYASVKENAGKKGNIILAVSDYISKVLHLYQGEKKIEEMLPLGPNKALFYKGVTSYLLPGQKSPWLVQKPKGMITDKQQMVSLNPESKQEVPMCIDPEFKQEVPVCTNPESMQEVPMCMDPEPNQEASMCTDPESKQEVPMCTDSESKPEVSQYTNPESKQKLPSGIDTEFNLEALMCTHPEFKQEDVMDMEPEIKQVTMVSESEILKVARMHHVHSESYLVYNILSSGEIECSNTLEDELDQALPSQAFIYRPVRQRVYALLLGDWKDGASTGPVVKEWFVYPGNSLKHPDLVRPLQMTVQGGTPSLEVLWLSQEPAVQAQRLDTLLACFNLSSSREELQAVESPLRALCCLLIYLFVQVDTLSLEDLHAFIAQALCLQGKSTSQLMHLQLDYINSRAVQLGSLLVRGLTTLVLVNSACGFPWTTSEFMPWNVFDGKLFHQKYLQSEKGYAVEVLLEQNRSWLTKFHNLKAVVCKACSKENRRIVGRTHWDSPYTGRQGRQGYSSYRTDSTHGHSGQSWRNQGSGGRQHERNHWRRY
Experiment: EMSA; 5 mM Mg2+; protein 0, 1, 5, 10, 20 nM; DNA 1 nM; EMSA: 20 mM HEPES pH 7.4, 0.1% NP-40, 0.1 M KCl, 5 mM MgCl2, 1% glycerol, 0.25 ug/uL BSA, 1 mM DTT, 30 min, room temperature; 5% native gel, 0.5x TBE
Details: protein: recombinant; tags: Strep-tag II (murine, C-terminal) or Strep-FLAG (human); label: 5' 32P; single strand 50 nt

Binder: AACGTCATAGACGATTACATTGCTAGGACATCTTTGCCCACGTTGACCCA (ssDNA) [X4]
- binding result: binds
